Measurements: paper PMC9462479 (2022)

B1: myc-tagged human ARMC5 (pcDNA3.1-myc-hARMC5), wild type [human] / FLAG-SREBF1(N), N-terminus of mouse SREBF1, from pcDNA3.1-FLAG-Srebf1(N) in HEK293T [mouse] (parent complex)
chain 1: MAAAKPTLTDSLSFCLAQLAAAAGEALGGEKDPATNETPLSRALLALRTRHIKAAGGIERFRARGGLRPLLALLRRAAAAGSAPSQAGPGSAPSSAASGASSPAPASGPAPSAVSSSSPTPPVRLRKTLDLALSILADCCTEGACRTEVRRLGGILPLVTILQCMKTDSIQNRTARALGNLAMEPESCGDIHCAGAVPLLVESLTACQDSQCLQSVVRALRNLADSPQHRLALAQQGAVRPLAELLATAPDAALTLALVRALLELSRGCSRACAEQLSLGGGLGPLVSLASHPKRAVREGTILILANLCAQGLIRPALGNAGGVEVLVDELRQRRDPNGASPTSQQPLVRAVCLLCREAINRARLRDAGGLDLLMGLLRDPRASAWHPRIVAALVGFLYDTGALGRLQALGLVPLLAGQLCGEAGEEEEEGREAASWDFPEERTPERAQGGSFRSLRSWLISEGYATGPDDISPDWSPEQCPPEPMEPASPAPTPTSLRAPRTQRTPGRSPAAAIEEPWGREGPALLLLSRFSQAPDPSGALVTGPALYGLLTYVTGAPGPPSPRALRILSRLTCNPACLEAFVRSYGAALLRAWLVLGVAPDDWPAPRARPTLHSRHRELGERLLQNLTVQAESPFGVGALTHLLLSGSPEDRVACALTLPFICRKPSLWRRLLLEQGGLRLLLAALTRPAPHPLFLFFAADSLSCLQDLVSPTVSPAVPQAVPMDLDSPSPCLYEPLLGPAPVPAPDLHFLLDSGLQLPAQRAASATASPFFRALLSGSFAEAQMDLVPLRGLSPGAAWPVLHHLHGCRGCGAALGPVPPPGQPLLGSEAEEALEAAGRFLLPGLEEELEEAVGRIHLGPQGGPESVGEVFRLGRPRLAAHCARWTLGSEQCPRKRGLALVGLVEAAGEEAGPLTEALLAVVMGIELGARVPA
chain 2: DELAFGEAALEQTLAEMCELDTAVLNDIEDMLQLINNQDSDFPGLFDAPYAGGETGDTGPSSPGANSPESFSSASLASSLEAFLGGPKVTPAPLSPPPSAPAALKMYPSVSPFSPGPGIKEEPVPLTILQPAAPQPSPGTLLPPSFPAPPVQLSPAPVLGYSSLPSGFSGTLPGNTQQPPSSLPLAPAPGVLPTPALHTQVQSLASQQPLPASAAPRTNTVTSQVQQVPVVLQPHFIKADSLLLTAVKTDAGATVKTAGISTLAPGTAVQAGPLQTLVSGGTILATVPLVVDTDKLPIHRLAAGSKALGSAQSRGEKRTAHNAIEKRYRSSINDKIVELKDLVVGTEAKLNKSAVLRKAIDYIRFLQHSNQKLKQENLTLRSAHKSKSLKDLVSACGSGGGTDVSMEGMKPEVVETLTPPPSDAGSPSQSSPLSFGSRASSSGGSDSEPDSP

Variants of: B1
Experiment: co-immunoprecipitation (anti-FLAG IP) with western blot densitometry; HEK293T cells; n = 3; read off a plot

response	Variant
~0.3 A.U.	chain 1 R898W
~0.12 A.U.	chain 1 R315W
~0.075 A.U.	chain 1 R362L
~0.12 A.U.	chain 1 L331P
~0.31 A.U.	chain 1 L754P
